Experimental data reported in patent US20210388110A1.
Substitutions are numbered along the chain they refer to.

B1: TR01H093-E2702GsKsc/L0011-k0 (antibody, human IgG4 S228P, kappa, N297A, V domains shown)
VH: QVQLVESGGGLVQPGRSLRLSCAASGFTFSNAWMHWVRQAPGKGLEWVAQIKDKSQNYATYYAESVQGRFTISRDDSKNSLYLQMNSLKTEDTAVYYCRYVHYAAGYGVDAWGQGTTVTVSS
VL: DIVMTQSPLSLPVTPGEPASISCRSSQPLVHSNRNTYLHWYQQKPGQAPRLLIYKVSNRFSGVPDRFSGSGSGTDFTLKISRVEAEDVGVYYCGQGTQVPYTFGQGTKLEIKR
B2: TR01H092-E2702GsKsc/L0011-k0 (antibody, human IgG4 S228P, kappa, N297A, V domains shown)
VH: B1 VH with Q67A
VL: B1 VL
B3: TR01H100-E2702GsKsc/L0011-k0 (antibody, human IgG4 S228P, kappa, N297A, V domains shown)
VH: B1 VH with T60S, Q67K
VL: B1 VL
B4: TR01H094-E2702GsKsc/L0011-k0 (antibody, human IgG4 S228P, kappa, N297A, V domains shown)
VH: B1 VH with Q67S
VL: B1 VL
B5: TR01H114-E2702GsKsc/L0011-k0 (antibody, human IgG4 S228P, kappa, N297A, V domains shown)
VH: B1 VH with L11V, R16G, T60S, Q67K, D75A, L81I, A111I
VL: B1 VL
B6: TR01H084-E2702GsKsc/L0011-k0 (antibody, human IgG4 S228P, kappa, N297A)
heavy: QVQLVESGGGVVQPGGSLRLSCAASGFTFSNAWMHWVRQAPGKGLEWVAQIKDKSQNYATYYAESVKGRFTISRADSKNSIYLQMNSLKTEDTAVYYCRYVHYAAGYGVDIWGQGTTVTVSSASTKGPSVFPLAPCSRSTSESTAALGCLVKDYFPEPVTVSWNSGALTSGVHTFPAVLQSSGLYSLSSVVTVPSSSLGTKTYTCNVDHKPSNTKVDKRVESKYGPPCPPCPAPEFRGGPKVFLFPPKPKDTLMISRTPEVTCVVVDVSQEDPEVQFNWYVDGVEVHNAKTKPREEQFASTYRVVSVLTVLHQDWLNGKEYKCKVSNKGLPSSIEKTISKAKGQPREPQVYTLPPSQKEMTKNQVSLTCLVKGFYPSDIAVEWESNGQPENNYKTTPPVLDSDGSFFLYSKLTVDKSRWQEGNVFSCSVMHEALHNRYTQKSLSLSP
light: DIVMTQSPLSLPVTPGEPASISCRSSQPLVHSNRNTYLHWYQQKPGQAPRLLIYKVSNRFSGVPDRFSGSGSGTDFTLKISRVEAEDVGVYYCGQGTQVPYTFGQGTKLEIKRTVAAPSVFIFPPSDEQLKSGTASVVCLLNNFYPREAKVQWKVDNALQSGNSQESVTEQDSKDSTYSLSSTLTLSKADYEKHKVYACEVTHQGLSSPVTKSFNRGEC
B7: TR01H090-E2702GsKsc/L0011-k0 (antibody, human IgG4 S228P, kappa, N297A)
heavy: B6 heavy with V11L, A75D, I81L, I111A
light: B6 light
B8: TR01H082-E2702GsKsc/L0011-k0 (antibody, human IgG4 S228P, kappa, N297A)
heavy: B6 heavy with V11L, G16R, A75D, I81L, I111A
light: B6 light
B9: TR01H111-E2702GsKsc/L0011-k0 (antibody, human IgG4 S228P, kappa, N297A)
heavy: B6 heavy with R19K
light: B6 light

Target: Mab Select SuRe Ligand
Assay: SPR (Biacore T200), SuRe ligand on CM5 chip, antibody 5 ug/mL

| Binder | SuRe binding (RU) |
| --- | --- |
| B1 | 2460 RU |
| B2 | 1160 RU |
| B3 | 383 RU |
| B4 | 2350 RU |
| B5 | 1490 RU |
| B6 | 5070 RU |
| B7 | 3610 RU |
| B8 | 4470 RU |
| B9 | 50.7 RU |
